Assay results published in the supplement of paper PMC9112550, “Optimization of the antimicrobial peptide Bac7 by deep mutational scanning” (BMC Biology, 2022).

The sequences below were run on Escherichia coli TOP10 (assay: shrunken log2 fold change of peptide-encoding DNA abundance (4.5 h post-induction vs induction); higher = less antimicrobial activity (less host growth inhibition)). Conditions: time post-induction: 4.5 h; library: site-saturation at positions 5, 18, 19, 20.
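Note: peptides expressed intracellularly from a pBAD plasmid library in pooled LB shake-flask culture, induced with 0.3% L-arabinose, DNA abundance read by NGS, three biological replicates, DESeq2 with apeglm shrinkage.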

Sequence	shrunken log2 fold change
RRIRWRPPRLPRPRPRPQTHPRP	1
RRIRFRPPRLPRPRPRPRLHPRP	0.0811
RRIRFRPPRLPRPRPRPQHAPRP	-0.202
RRIRNRPPRLPRPRPRPIFCPRP	-0.0368
RRIRNRPPRLPRPRPRPPNWPRP	0.217
RRIRDRPPRLPRPRPRPFLNPRP	-0.243
RRIRFRPPRLPRPRPRPWFFPRP	-0.393
RRIRGRPPRLPRPRPRPWSLPRP	0.094
RRIRWRPPRLPRPRPRPHKHPRP	-0.117
RRIRRRPPRLPRPRPRPGTAPRP	0.414
RRIRIRPPRLPRPRPRPAFPPRP	-0.0288
RRIRKRPPRLPRPRPRPSPTPRP	-0.00658
RRIRFRPPRLPRPRPRPAGGPRP	0.382
RRIRRRPPRLPRPRPRPEERPRP	0.34
RRIRCRPPRLPRPRPRPDQNPRP	-0.138
RRIRFRPPRLPRPRPRPGRIPRP	0.0413
RRIRTRPPRLPRPRPRPIFHPRP	-0.204
RRIRQRPPRLPRPRPRPQEVPRP	-0.171
RRIRHRPPRLPRPRPRPTWIPRP	-0.206
RRIRFRPPRLPRPRPRPCCYPRP	-0.251
RRIRARPPRLPRPRPRPMQWPRP	0.442
RRIRWRPPRLPRPRPRPRKEPRP	0.0466
RRIRKRPPRLPRPRPRPNINPRP	-0.169
RRIRTRPPRLPRPRPRPTPLPRP	0.147
RRIRPRPPRLPRPRPRPCPMPRP	-0.156

Sequence	shrunken log2 fold change
RRIRPRPPRLPRPRPRPVIAPRP	0.0792
RRIRGRPPRLPRPRPRPNWGPRP	0.44
RRIRARPPRLPRPRPRPYEIPRP	-0.059
RRIRVRPPRLPRPRPRPIDWPRP	0.224
RRIRCRPPRLPRPRPRPPDEPRP	1.07
RRIRFRPPRLPRPRPRPGQSPRP	0.0525
RRIRARPPRLPRPRPRPGSVPRP	0.301
RRIRNRPPRLPRPRPRPPKYPRP	-0.349
RRIRHRPPRLPRPRPRPHFTPRP	-0.67
RRIRYRPPRLPRPRPRPNLMPRP	-0.617
RRIRWRPPRLPRPRPRPFWFPRP	-0.119
RRIRRRPPRLPRPRPRPGGQPRP	0.175
RRIRSRPPRLPRPRPRPYYRPRP	-0.0115
RRIRHRPPRLPRPRPRPKNKPRP	-0.521
RRIRPRPPRLPRPRPRPQFYPRP	-0.592
RRIRHRPPRLPRPRPRPLRRPRP	0.3
RRIRQRPPRLPRPRPRPDNCPRP	0.0333
RRIRQRPPRLPRPRPRPVFGPRP	0.13
RRIRPRPPRLPRPRPRPLACPRP	0.265
RRIRGRPPRLPRPRPRPTCFPRP	1.14
RRIRFRPPRLPRPRPRPDCRPRP	-0.309
RRIRCRPPRLPRPRPRPQWDPRP	-0.0642
RRIRHRPPRLPRPRPRPGQVPRP	-0.00149
RRIRNRPPRLPRPRPRPHFCPRP	-0.144
RRIRMRPPRLPRPRPRPKYFPRP	-0.186

Sequence	shrunken log2 fold change
RRIRIRPPRLPRPRPRPPIHPRP	-0.614
RRIRERPPRLPRPRPRPSLCPRP	-0.0545
RRIRDRPPRLPRPRPRPKPEPRP	0.0415
RRIRTRPPRLPRPRPRPNVFPRP	0.0305
RRIRMRPPRLPRPRPRPKWCPRP	0.0391
RRIRARPPRLPRPRPRPVSQPRP	0.385
RRIRVRPPRLPRPRPRPLKYPRP	-0.136
RRIRFRPPRLPRPRPRPRCYPRP	-0.473
RRIRRRPPRLPRPRPRPMKTPRP	0.0796
RRIRKRPPRLPRPRPRPQWSPRP	0.00166
RRIRMRPPRLPRPRPRPTEWPRP	0.555
RRIRQRPPRLPRPRPRPFKRPRP	0.0391
RRIRCRPPRLPRPRPRPGGAPRP	0.462
RRIRPRPPRLPRPRPRPNETPRP	0.0335
RRIRRRPPRLPRPRPRPVSDPRP	0.444
RRIRVRPPRLPRPRPRPHDQPRP	0.134
RRIRIRPPRLPRPRPRPLDPPRP	-0.0309
RRIRQRPPRLPRPRPRPLGVPRP	0.0233
RRIRARPPRLPRPRPRPGMRPRP	0.545
RRIRERPPRLPRPRPRPSLSPRP	-0.573
RRIRFRPPRLPRPRPRPLQGPRP	0.0475
RRIRLRPPRLPRPRPRPDPAPRP	0.752
RRIRGRPPRLPRPRPRPMLQPRP	0.324
RRIRMRPPRLPRPRPRPYMQPRP	-0.338
RRIRRRPPRLPRPRPRPCQKPRP	0.0185
